Test results as given in US20240294670A1 (University of Texas, published 2024).

Assays:
Assay in all cases: anti-His co-IP of rCHI3L1 from Kupffer cell lysate, MS; listed under 'proteins bound to CHI3L1'
Q3UJ34_MOUSE = target: T1, Q3UJ34_MOUSE (mouse, UniProt Q3UJ34 1-412)
T1 construct: also called tr|Q3UJ34|Q3UJ34_MOUSE
T1 sequence: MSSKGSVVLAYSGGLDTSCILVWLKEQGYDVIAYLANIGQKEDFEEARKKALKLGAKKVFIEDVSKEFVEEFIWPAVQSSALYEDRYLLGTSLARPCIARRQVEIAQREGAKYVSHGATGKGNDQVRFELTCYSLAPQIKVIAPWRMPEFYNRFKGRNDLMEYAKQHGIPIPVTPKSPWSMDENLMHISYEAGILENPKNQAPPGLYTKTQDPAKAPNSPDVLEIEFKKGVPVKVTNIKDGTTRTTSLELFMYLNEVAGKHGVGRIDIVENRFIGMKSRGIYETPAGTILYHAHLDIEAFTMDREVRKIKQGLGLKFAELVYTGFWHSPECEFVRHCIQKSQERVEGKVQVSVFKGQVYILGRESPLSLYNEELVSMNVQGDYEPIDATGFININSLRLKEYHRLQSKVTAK
Procedure: (§1) CHI3L1 interacts with CD44 on KCs. To further understand how CHI3L1 mediates the function of KCs to recruit platelets, the inventors set out to identify its receptor on KCs. They isolated KCs from WT mice treated with APAP for 3 h and incubated the cells with His-tagged rCHI3L1. The cell lysate was subjected to immunoprecipitation using an anti-His antibody. The “pulled down” fraction was subjected to LC/MS analyses. A partial list of proteins identified, including CHI3L1 itself, is shown in (Extended Data Table 1). Because CD44 is a cell membrane protein, the inventors decided to investigate it is a receptor for CHI3L1. They performed/immunoprecipitation experiments using liver homogenates obtained from WT and CD44^{-/-} mice after APAP treatment. […] Moreover, the inventors incubated rhCHI3L1 with human CD44 and then immunoprecipitated with an anti-CD44 antibody. The data confirmed a direct binding between CHI3L1 and CD44 (FIG. 3C). Consistent with the notion that many cell types express CD44, they detected CD44 express on various hepatic non-parenchymal cells (NPCs) except B cells and DCs (summarized in Extended Data Table 2). However, when they incubated liver NPCs with His-tagged rCHI3L1, the inventors observed that the only CD44-expressing cells that could bind to CHI3L1 were KCs (FIG. 3D).

Q3T9S7_MOUSE = target: T2, Q3T9S7_MOUSE (mouse, UniProt Q3T9S7 22-1179)
T2 construct: also called tr|Q3T9S7|Q3T9S7_MOUSE
T2 sequence: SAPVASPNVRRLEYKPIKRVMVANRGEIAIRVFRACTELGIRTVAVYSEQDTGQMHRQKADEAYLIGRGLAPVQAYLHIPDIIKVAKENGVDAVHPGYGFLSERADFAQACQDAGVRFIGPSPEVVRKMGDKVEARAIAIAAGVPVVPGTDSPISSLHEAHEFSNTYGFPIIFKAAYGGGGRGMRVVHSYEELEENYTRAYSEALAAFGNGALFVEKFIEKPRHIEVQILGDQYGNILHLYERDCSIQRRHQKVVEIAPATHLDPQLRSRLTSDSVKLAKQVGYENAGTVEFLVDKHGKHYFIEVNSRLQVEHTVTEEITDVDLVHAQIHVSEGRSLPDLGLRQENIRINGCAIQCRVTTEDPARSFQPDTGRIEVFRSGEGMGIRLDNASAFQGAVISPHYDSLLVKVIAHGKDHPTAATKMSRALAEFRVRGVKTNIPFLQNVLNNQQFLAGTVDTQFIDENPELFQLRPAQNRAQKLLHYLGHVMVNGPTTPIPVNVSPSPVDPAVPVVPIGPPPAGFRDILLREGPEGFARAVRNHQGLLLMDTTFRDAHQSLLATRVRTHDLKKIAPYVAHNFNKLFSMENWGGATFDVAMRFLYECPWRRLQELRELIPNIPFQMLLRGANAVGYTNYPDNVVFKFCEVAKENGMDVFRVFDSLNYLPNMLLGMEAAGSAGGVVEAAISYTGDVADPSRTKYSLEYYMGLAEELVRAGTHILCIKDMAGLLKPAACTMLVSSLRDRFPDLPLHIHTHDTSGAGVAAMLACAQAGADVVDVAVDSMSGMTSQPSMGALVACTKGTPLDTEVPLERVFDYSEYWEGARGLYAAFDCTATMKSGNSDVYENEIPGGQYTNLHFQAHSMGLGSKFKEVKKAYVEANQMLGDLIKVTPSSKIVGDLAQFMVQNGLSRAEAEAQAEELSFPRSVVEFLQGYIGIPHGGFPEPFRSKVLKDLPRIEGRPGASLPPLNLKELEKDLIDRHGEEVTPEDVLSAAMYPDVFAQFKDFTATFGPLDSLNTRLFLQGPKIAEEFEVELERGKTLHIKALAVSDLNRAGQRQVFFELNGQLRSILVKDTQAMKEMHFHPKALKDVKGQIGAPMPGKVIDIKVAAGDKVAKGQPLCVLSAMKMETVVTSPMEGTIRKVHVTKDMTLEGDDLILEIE
Procedure: as §1

D3Z041_MOUSE = target: T3, D3Z041_MOUSE (mouse, UniProt D3Z041 1-699)
T3 construct: also called tr|D3Z041|D3Z041_MOUSE
T3 sequence: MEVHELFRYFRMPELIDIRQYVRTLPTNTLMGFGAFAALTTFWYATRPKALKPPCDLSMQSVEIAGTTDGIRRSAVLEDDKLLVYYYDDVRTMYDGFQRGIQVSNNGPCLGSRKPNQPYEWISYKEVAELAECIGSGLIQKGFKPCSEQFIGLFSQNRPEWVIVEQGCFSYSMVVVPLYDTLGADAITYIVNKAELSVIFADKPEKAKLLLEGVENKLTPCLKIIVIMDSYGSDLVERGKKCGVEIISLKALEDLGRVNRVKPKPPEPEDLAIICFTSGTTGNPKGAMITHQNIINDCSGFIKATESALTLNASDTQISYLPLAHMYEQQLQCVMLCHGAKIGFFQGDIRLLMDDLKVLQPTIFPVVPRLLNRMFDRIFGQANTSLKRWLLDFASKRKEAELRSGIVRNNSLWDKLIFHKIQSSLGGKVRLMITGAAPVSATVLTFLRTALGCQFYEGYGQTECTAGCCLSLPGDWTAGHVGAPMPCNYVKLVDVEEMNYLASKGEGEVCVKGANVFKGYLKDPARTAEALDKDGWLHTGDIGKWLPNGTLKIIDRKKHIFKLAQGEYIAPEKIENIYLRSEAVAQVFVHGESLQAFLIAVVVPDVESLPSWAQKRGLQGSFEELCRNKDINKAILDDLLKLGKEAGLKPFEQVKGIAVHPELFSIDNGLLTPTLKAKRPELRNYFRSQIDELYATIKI
Procedure: as §1

Measured: binding result

B1: recombinant mouse CHI3L1 (ligand)
chain: not shown
notes: His-tagged; also called mCHI3L1; mChi3l1
binds: Q3UJ34_MOUSE | Q3T9S7_MOUSE | D3Z041_MOUSE
